Laboratory results taken from KR20230139570A (dated 2023).

What was measured:
[1] = target: CD47 단백질 (Acrobiosystems, cat# CD7-HA2E9) (UniProt Q08722); test: ELISA, CD47 protein coated, negative control
[2] = target: CD47 on CD47-overexpressing breast cancer cell line MCF-7 (UniProt Q08722); test: flow cytometry on MCF-7 cells, secondary antibody alone (background control)
[3] = target: CD47 단백질 (Acrobiosystems, cat# CD7-HA2E9) (UniProt Q08722); test: ELISA, CD47 protein coated, same method as Example 2-1
[4] = target: 인간 CD47 단백질 (Human CD47, SPR analyte) (human, UniProt Q08722 19-139, limits assumed); test: SPR, Biacore 8K, antibody captured, human CD47 as analyte
Chain of 인간 CD47 단백질 (Human CD47, SPR analyte) (Q08722 19-139 limits assumed): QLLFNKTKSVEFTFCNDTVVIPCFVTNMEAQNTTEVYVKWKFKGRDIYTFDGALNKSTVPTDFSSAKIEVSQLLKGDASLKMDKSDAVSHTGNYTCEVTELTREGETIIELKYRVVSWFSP

Row | Molecule | Kd [4] | koff [4] | kon [4] | also measured
1 | 음성대조군 (negative control of the Hu3A5V10 ELISA) | – | – | – | OD450 [1]: 0.0431 OD450
2 | PE-conjugated goat anti-mouse IgG (Biolegend Inc., cat# 405307) (antibody) | – | – | – | Mean (fluorescence) [2]: 80; Median (fluorescence) [2]: 73.9
3 | Hu3A5V10 항체 (humanized 3A5 antibody, as tested in Example 4) (antibody, V domains shown) VH: EVQLVQSGSELKKPGASVKVSCKASGYTFTSYWMHWMRQAPGQGLEWIGVIDPSDSYTSYNQGFTGRFVLSVDTSVSTAYLQISSLKAEDTAVYYCARGGKRAMDYWGQGTTVTVSS VL: DVVMTQSPLSLPVTLGQPASISCRSSQSLVHSNGNTYLHWFQQRPGQSPRLLIYKVSNRFSGVPDRFSGSGSGTDFTLKISRVEAEDVGVYYCSQSTHVPFTFGGGTKLEIK | – | – | – | OD450 [3]: 2.81 OD450
4 | AHF16310 전장 항체 (full length antibody, IgG4) (antibody, V domains shown, also called AHF16310 항체) VH: EVQLVQSGSELKKPGASVKVSCKASGYTFTSYWMHWMRQAPGQGLEWIGVIDPNDSYTSYNQGFTGRFVLSVDTSVSTAYLQISSLKAEDTAVYYCARGGKRMMDYWGQGTTVTVSS VL: DVVMTQSPLSLPVTLGQPASISCRSSQSLVHSNGNTYLHWFQQRPGQSPRLLIYKVSNRFTGVPDRFSGSGSGTDFTLKISRVEAEDVGVYYCSQSTHVPFTFGGGTKLEIKR | 0.208 nM | 0.000458 s⁻¹ | 2.21e+06 M⁻¹ s⁻¹ | –
5 | AHF16309 전장 항체 (full length antibody, IgG4) (antibody, V domains shown, also called AHF16309 항체) VH: EVQLVQSGSELKKPGASVKVSCKASGYTFTSYWMHWMRQAPGQGLEWIGVIDPNDSYTSYNQGFTGRFVLSVDTSVSTAYLQISSLKAEDTAVYYCARGGKRMMDYWGQGTTVTVSS VL: DVVMTQSPLSLPVTLGQPASISCRSSQSLVHSNGNTYLNWFQQRPGQSPRLLIYKVSNRFPGVPDRFSGSGSGTDFTLKISRVEAEDVGVYYCSQSTHVPFTFGGGTKLEIKR | 0.312 nM | 0.000865 s⁻¹ | 2.78e+06 M⁻¹ s⁻¹ | –
6 | Hu3A5V10 전장 항체 (full length antibody, IgG4) (antibody, V domains shown, also called U822EGG010-Hu3A5V10) VH: EVQLVQSGSELKKPGASVKVSCKASGYTFTSYWMHWMRQAPGQGLEWIGVIDPSDSYTSYNQGFTGRFVLSVDTSVSTAYLQISSLKAEDTAVYYCARGGKRAMDYWGQGTTVTVSS VL: DVVMTQSPLSLPVTLGQPASISCRSSQSLVHSNGNTYLHWFQQRPGQSPRLLIYKVSNRFSGVPDRFSGSGSGTDFTLKISRVEAEDVGVYYCSQSTHVPFTFGGGTKLEIKR | 0.465 nM | 0.000467 s⁻¹ | 1e+06 M⁻¹ s⁻¹ | –
7 | AHF16312 전장 항체 (full length antibody, IgG4) (antibody, V domains shown, also called AHF16312 항체) VH: EVQLVQSGSELKKPGASVKVSCKASGYTFTSYWMHWMRQAPGQGLEWIGVIDPNDSYTSYNQGFTGRFVLSVDTSVSTAYLQISSLKAEDTAVYYCARGGKRIMDYWGQGTTVTVSS VL: DVVMTQSPLSLPVTLGQPASISCRSSQSLVHSNGNTYLNWFQQRPGQSPRLLIYKVSNRFTGVPDRFSGSGSGTDFTLKISRVEAEDVGVYYCSQSTHVPFTFGGGTKLEIKR | 0.166 nM | 0.000307 s⁻¹ | 1.85e+06 M⁻¹ s⁻¹ | –
